This is an account of results in paper PMC5424545 (Cell reports, 2017).

To fix the notation:
B1: Snf6 (natural protein, S. cerevisiae (endogenous in yeast), UniProt P18888 1-332, looked up)
chain: MGVIKKKRSHHGKASRQQYYSGVQVGGVGSMGAINNNIPSLTSFAEENNYQYGYSGSSAGMNGRSLTYAQQQLNKQRQDFERVRLRPEQLSNIIHDESDTISFRSNLLKNFISSNDAFNMLSLTTVPCDRIEKSRLFSEKTIRYLMQKQHEMKTQAAELQEKPLTPLKYTKLIAAAEDGSRSTKDMIDAVFEQDSHLRYQPDGVVVHRDDPALVGKLRGDLREAPADYWTHAYRDVLAQYHEAKERIRQKEVTAGEAQDEASLQQQQQQDLQQQQQVVTTVASQSPHATATEKEPVPAVVDDPLENMFGDYSNEPFNTNFDDEFGDLDAVFF
B2: Snf5 (natural protein, S. cerevisiae (endogenous in yeast), UniProt P18480 1-905, looked up)
chain: MNNQPQGTNSVPNSIGNIFSNIGTPSFNMAQIPQQLYQSLTPQQLQMIQQRHQQLLRSRLQQQQQQQQQTSPPPQTHQSPPPPPQQSQPIANQSATSTPPPPPAPHNLHPQIGQVPLAPAPINLPPQIAQLPLATQQQVLNKLRQQAIAKNNPQVVNAITVAQQQVQRQIEQQKGQQTAQTQLEQQRQLLVQQQQQQQLRNQIQRQQQQQFRHHVQIQQQQQKQQQQQQQHQQQQQQQQQQQQQQQQQQQQQQQQQQQQQQQQQQQQQGQIPQSQQVPQVRSMSGQPPTNVQPTIGQLPQLPKLNLPKYQTIQYDPPETKLPYPTYWSDKKADTDTLLYEQIIQRDKINKYSLIRETNGYDPFSIYGFSNKEYISRLWHTLKYYQDLKNTRMKSITSTSQKIPSASIWGNGYSGYGNGITNTTTRVIPQVEVGNRKHYLEDKLKVYKQAMNETSEQLVPIRLEFDQDRDRFFLRDTLLWNKNDKLIKIEDFVDDMLRDYRFEDATREQHIDTICQSIQEQIQEFQGNPYIELNQDRLGGDDLRIRIKLDIVVGQNQLIDQFEWDISNSDNCPEEFAESMCQELELPGEFVTAIAHSIREQVHMYHKSLALLGYNFDGSAIEDDDIRSRMLPTITLDDVYRPAAESKIFTPNLLQISAAELERLDKDKDRDTRRKRRQGRSNRRGMLALSGTSASNTSMNGVHNTVAAGNASSLPPGEILLPDIADIPRTFRTPVPSTLMPGGVDVGPSVESYELRNTTTYKSRPDRPKPVSPPCYIIDHIPGHSLLLSIKLPGKVNTKEEFAAAPNDTSSGTNAMLPSPESLKTKLNSNIRAGVTIPSIPNPIANHTVTNSPNPTLQPVIPGGAASKSVPTPSLPIAPPVAPHDSEATLLTNSNNGSSNNNTQNT
B3: Swp82 (natural protein, S. cerevisiae (endogenous in yeast), UniProt P43554 1-623, looked up)
chain: MLGEDEGNTVLEKGNNPSVKQGEVGAVFIVPKILIREHERVILKQILQILDQDELVQPPLDKFPYKKLELPKYIDELKTRDATNTSYKMIQLDAYGEKKVGSNGELFGGRHYLFNTFTFTAHMGVLLVLLQDVIKVLYQSNATHDEDEFIVQHDQILVMETSEEQTKFLAKNGVIPEESKGSFKYITARSAFVEFGASVIAGGQRIVDDYWESLAKKQNLSSHQRVFKLSTNLISKISLLRPSFQNNRISNANEISANTNNTCTISTSKFESQYPIVTEQPSAEIREAYIENFAKGEHISAIVPGQSISGTLELSAQFRVPRYHSKNSFQQALQMKAMDIPIGRHEELLAQYESQAPDGSASISLPNHIPSVNPSNKPIKRMLSSILDINVSSSKNKKSEENEMIKPMNKGQHKNNTSLNINGWKFESLPLKSAENSGKQQYYRGLPLYEKNTLLERLKQLTPNEIKELEHLHDAVFVNTGLQNVRKVRTKKWKKYWQYKAGIPIGLKRSQLDEFKNKYLKDVLAQTSVTTNFNEITNTDETITTKRVPNPNFLGNCNIKDFKPPYIYSHVNKVPQNVAGDKTAVKLDTEVKNTNANPVVATDPVAAKPDNLANFSNEVAMNN
B4: Swi3 (natural protein, S. cerevisiae (endogenous in yeast), UniProt P32591 1-825, looked up)
chain: MENTLGEGSTVNASVDVDQHGNDNNSDSNANAAVAGVANTDTAGEESQQQDESLKDEATVPNTRDAESEAITVTAKQQPTMQANKLDSQETPSTEESRAQNVFGQDNEDSDNLFGETESSVSNNEANTPSIPTNPVDNENNKPAIKEDSTIQDSNGDVKNMEDVKIQKEEEPENNTVIEGVKEESQPDENTKEMDEVEEDDEDDDQPMISPDNSIFGDTKSESKQLGNTSSVANTPSEIPDAHKAEQEDIIEKTESVDKKVDSGEERNEQEREIMNDHSKSANPKKTTITRVEPETFEIPQAHEIVIPSYSKWFNLEKIHSIEVQSLPEFFTNRIPSKTPEVYMRYRNFMVNSYRLNPNEYFSVTTARRNVSGDAAALFRLHKFLTKWGLINYQVDSKLLPKNIEPPLTSQYSTRHDAPRGLFPFESYKPSVQLPDMAKLKKMMNTSDSESTLYKYLKESKRKYDEITHPPSTTDDENGDKNDNGGKMNNEVSTSTSMTGDANLLEEGETSRPLKKVKILEQIDENWSKEDLQKLLKGIQEFGADWYKVAKNVGNKSPEQCILRFLQLPIEDKFLYGDGNGKGDNDNGLGPLKYAPHLPFSKSENPVLSTIAFLVGLVNPKTVQSMTQRAIQSAESIKSQKEEISDQKPIEHIKEGSEIAISSLGYRSHIFATNEERQMNFLTNELIRLQMEKLDAKLNHLKKLEKFMELERKTLERQQENLLIQRLNFNQNSSKIVNVLSKCLNLISDSNINNSSVAEKEEIRSQIDHFKSMLSKPETLSIGKNPFNKPNIETGENHNGQSISNENDVKPISIEAPQFYRYWSA
B5: Taf14 (natural protein, S. cerevisiae (endogenous in yeast), UniProt P35189 1-244, looked up)
chain: MVATVKRTIRIKTQQHILPEVPPVENFPVRQWSIEIVLLDDEGKEIPATIFDKVIYHLHPTFANPNRTFTDPPFRIEEQGWGGFPLDISVFLLEKAGERKIPHDLNFLQESYEVEHVIQIPLNKPLLTEELAKSGSTEETTANTGTIGKRRTTTNTTAEPKAKRAKTGSASTVKGSVDLEKLAFGLTKLNEDDLVGVVQMVTDNKTPEMNVTNNVEEGEFIIDLYSLPEGLLKSLWDYVKKNTE
B6: Swi1 (natural protein, S. cerevisiae (endogenous in yeast), UniProt P09547 1-1314, looked up)
chain: MDFFNLNNNNNNNNTTTTTTTTNNNNTNNNNTNNNNNPANNTNNNNSTGHSSNTNNNTNNNNTNTGASGVDDFQNFFDPKPFDQNLDSNNNNSNSNNNDNNNSNTVASSTNFTSPTAVVNNAAPANVTGGKAANFIQNQSPQFNSPYDSNNSNTNLNSLSPQAILAKNSIIDSSNLPLQAQQQLYGGNNNNNSTGIANDNVITPHFITNVQSISQNSSSSTPNTNSNSTPNANQQFLPFNNSASNNGNLTSNQLISNYAASNSMDRSSSASNEFVPNTSDNNNNSNNHNMRNNSNNKTSNNNNVTAVPAATPANTNNSTSNANTVFSERAAMFAALQQKQQQRFQALQQQQQQQQNQQQQNQQPQQQQQQQQNPKFLQSQRQQQQRSILQSLNPALQEKISTELNNKQYELFMKSLIENCKKRNMPLQSIPEIGNRKINLFYLYMLVQKFGGADQVTRTQQWSMVAQRLQISDYQQLESIYFRILLPYERHMISQEGIKETQAKRIFLQQFLQELLKKVQQQQQAAALANANNNINSASSAPTPAAPGASVPATAAPGTEAGIVPVSANTPKSLNSNININVNNNNIGQQQVKKPRKQRVKKKTKKELELERKEREDFQKRQQKLLEDQQRQQKLLLETKLRQQYEIELKKLPKVYKRSIVRNYKPLINRLKHYNGYDINYISKIGEKIDSNKPIFLFAPELGAINLHALSMSLQSKNLGEINTALNTLLVTSADSNLKISLVKYPELLDSLAILGMNLLSNLSQNVVPYHRNTSDYYYEDAGSNQYYVTQHDKMVDKIFEKVNNNATLTPNDSNDEKVTILVDSLTGNQLPTPTPTEMEPDLDTECFISMQSTSPAVKQWDLLPEPIRFLPNQFPLKIHRTPYLTSLKKIKDEIDDPFTKINTRGAEDPKVLINDQLSTISMILRNISFSDNNSRIMSRNFYLKRFISDLLWLVLIHPENFTCNRKILNFKKDLVIVLSNISHLLEIASSIDCLLILILVISFGQPKLNPMASSSSFGSESLTFNEFQLQWGKYQTFGVDILAKLFSLEKPNLNYFKSILLNKNTGNNLYDRNSNNNHKDKKLLRRLLNLYNDNNKNNNNRHNLLNDVVSFLFSAIPLQQVLSQSADPSLLIDQFSPVISQSLTSILVIVQKILPLSNEVFEISENNSDSNSNNNGNKDSSFNFNKNLPFVWLSSEENIGSGLLKLSEIILNINNSTSKNTLLQQQNYSKVLLPSINISCVQLIKCLVEKSICFENCLNNDPEILKKIASIPNLFPTDLEIFQLFTNPSVDIQIINQYQLLYNLKNDILTNLE

Assay in all cases: cross-linking
For test [1], the target named is B2.
Test [2] has as its target Snf2 with two FLAG tags at the C-terminus (S. cerevisiae (endogenous in yeast), UniProt P22082 1-1703).
Test [3] concerns the target B6.

Chain of Snf2 with two FLAG tags at the C-terminus (P22082 whole entry): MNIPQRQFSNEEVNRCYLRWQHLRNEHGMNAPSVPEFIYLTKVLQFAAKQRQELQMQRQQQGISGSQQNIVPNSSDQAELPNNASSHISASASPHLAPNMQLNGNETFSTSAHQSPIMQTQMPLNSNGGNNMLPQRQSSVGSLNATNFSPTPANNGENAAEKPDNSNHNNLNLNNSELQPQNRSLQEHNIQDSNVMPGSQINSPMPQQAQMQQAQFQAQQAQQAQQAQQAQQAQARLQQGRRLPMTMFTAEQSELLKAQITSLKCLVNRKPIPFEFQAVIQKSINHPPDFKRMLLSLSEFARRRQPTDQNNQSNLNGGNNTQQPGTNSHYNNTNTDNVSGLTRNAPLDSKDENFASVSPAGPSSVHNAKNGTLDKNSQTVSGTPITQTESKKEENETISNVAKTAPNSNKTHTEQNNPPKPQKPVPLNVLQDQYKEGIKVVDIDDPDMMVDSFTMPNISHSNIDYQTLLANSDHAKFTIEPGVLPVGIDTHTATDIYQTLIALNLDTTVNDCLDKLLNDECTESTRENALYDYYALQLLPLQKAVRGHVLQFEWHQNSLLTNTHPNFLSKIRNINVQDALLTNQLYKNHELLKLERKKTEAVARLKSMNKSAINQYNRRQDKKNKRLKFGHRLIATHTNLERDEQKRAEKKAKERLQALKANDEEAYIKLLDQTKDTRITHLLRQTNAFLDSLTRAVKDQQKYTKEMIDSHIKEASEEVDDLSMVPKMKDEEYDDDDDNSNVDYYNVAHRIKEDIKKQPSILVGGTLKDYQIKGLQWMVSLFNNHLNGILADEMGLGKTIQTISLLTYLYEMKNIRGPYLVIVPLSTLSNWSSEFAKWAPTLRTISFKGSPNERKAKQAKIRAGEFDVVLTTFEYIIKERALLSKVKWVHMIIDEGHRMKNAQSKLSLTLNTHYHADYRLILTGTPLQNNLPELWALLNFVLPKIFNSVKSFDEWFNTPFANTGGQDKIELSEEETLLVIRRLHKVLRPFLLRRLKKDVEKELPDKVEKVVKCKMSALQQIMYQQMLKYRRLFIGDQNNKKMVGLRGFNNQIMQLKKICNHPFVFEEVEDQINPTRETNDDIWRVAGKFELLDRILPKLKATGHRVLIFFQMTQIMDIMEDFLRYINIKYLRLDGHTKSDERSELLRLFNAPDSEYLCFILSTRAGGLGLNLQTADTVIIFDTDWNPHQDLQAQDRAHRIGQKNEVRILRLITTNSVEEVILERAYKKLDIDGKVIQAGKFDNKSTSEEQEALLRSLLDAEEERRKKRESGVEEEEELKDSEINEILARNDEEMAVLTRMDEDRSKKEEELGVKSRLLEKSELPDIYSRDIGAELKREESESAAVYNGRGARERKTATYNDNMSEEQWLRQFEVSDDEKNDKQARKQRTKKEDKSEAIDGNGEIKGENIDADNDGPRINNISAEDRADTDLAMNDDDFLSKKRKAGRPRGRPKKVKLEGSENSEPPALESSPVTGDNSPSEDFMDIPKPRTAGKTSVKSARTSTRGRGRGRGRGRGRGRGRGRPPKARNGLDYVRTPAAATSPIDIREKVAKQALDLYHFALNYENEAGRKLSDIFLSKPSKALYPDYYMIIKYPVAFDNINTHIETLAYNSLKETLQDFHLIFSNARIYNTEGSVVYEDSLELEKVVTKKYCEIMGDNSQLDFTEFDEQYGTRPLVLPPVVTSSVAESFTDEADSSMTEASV

Consider B1, for which the binding result in test [1] is recorded as “binds”.

Take B2: the binding result in test [2] and in test [3] was “binds” in each case. As for B3, the binding result in test [1] and in test [2] was “binds” in each case.

On to B4, for which the binding result in test [1] and in test [2] was “binds” in each case. In the case of B5, the binding result in test [1] and in test [2] was “binds” throughout.

In the case of B6, the binding result in test [2] is on record as “binds”.
